Test results taken from PMC12830090.

Tests used:
Experiment in all cases: NMR
Cys34 = Cys34 (UniProt position 34, DWCGHCQAAQP); conditions: 298 K; reduced (dithiol) Patrx2, with DTT
Cys31 = Cys31 (UniProt position 31, FGTDWCGHCQA); conditions: 298 K; reduced (dithiol) Patrx2, with DTT
His33 = His33 (UniProt position 33, TDWCGHCQAAQ); conditions: 298 K

For “Patrx2 (atypical thioredoxin, PA2694) (Pseudomonas aeruginosa)”, the pKa (Cys34) was “greater than 11.5”, the pKa (Cys31) was 5.8 and the pKa (His33; oxidised (C31-C34 disulfide) Patrx2, without DTT) was “less than 5”. It also gave a pKa (His33; reduced (dithiol) Patrx2, with DTT) of 6.3.
